The Immune Epitope Database (IEDB)
pKd: −log10 of the molar value.

How the values were obtained:
Assay in all cases: IEDB peptide-MHC binding, purified MHC/competitive/radioactivity; filed as Kd, often an IC50 or EC50 that approximates it; ≥ and ≤ were set here for values at or beyond the usual limits of such assays
[1] = target: HLA-A*03:01
[2] = target: HLA-A*11:01
[3] = target: HLA-A*68:01
[4] = target: HLA-A*33:01
[5] = target: HLA-A*31:01
[6] = source organism: SARS coronavirus Tor2
[7] = source organism: Vaccinia virus WR
[8] = source organism: Dengue virus 2 Jamaica/1409/1983
[9] = source organism: Dengue virus 1 Brazil/97-11/1997
[10] = source organism: Dengue virus 4 Philippines/H241/1956
[11] = source organism: Dengue virus 3 Martinique/1243/1999
[12] = source organism: Mammarenavirus juninense
[13] = source organism: Mammarenavirus guanaritoense
[14] = source organism: Vaccinia virus Copenhagen
[15] = source organism: Mammarenavirus lassaense
[16] = source organism: Dengue virus 1 Nauru/West Pac/1974

SFYVYANGGR
pKd [1, 6]: 5.78
pKd [2, 6]: 5.93
pKd [3, 6]: 6.10
pKd [4, 6]: 6.74
pKd [5, 6]: 7.05

LVTRKCPQK
pKd [1, 7]: 7.20
pKd [2, 7]: 7.76
pKd [3, 7]: 7.71
pKd [4, 7]: 5.29
pKd [5, 7]: 5.88

LTDTIESAK
pKd [1, 7]: 5.97
pKd [2, 7]: 6.90
pKd [3, 7]: 7.59
pKd [4, 7]: 8.52
pKd [5, 7]: 8.09

CTLPPLRYR
pKd [4, 8]: 7.92
pKd [5, 8]: 8.54

SIFKLTYQNK
pKd [1, 9]: 7.82
pKd [2, 9]: 7.18

VMNIERQDY
pKd [1, 7]: ≤ 4.21
pKd [2, 7]: 5.21
pKd [3, 7]: 7.27
pKd [4, 7]: 6.13
pKd [5, 7]: 5.41

YTYDRVDIYY
pKd [1, 7]: 7.01
pKd [2, 7]: 8.62
pKd [3, 7]: 9.02
pKd [4, 7]: 5.93
pKd [5, 7]: 4.96

ISQFSYKELY
pKd [1, 7]: 5.24
pKd [2, 7]: 5.90
pKd [3, 7]: 5.11
pKd [4, 7]: ≤ 4.33
pKd [5, 7]: 5.02

KLKPRWLDAR
pKd [5, 8]: 8.86

TALAFHLTTR
pKd [3, 9]: 7.00
pKd [5, 9]: ≤ 4.40

CTLPPLRFR
pKd [4, 9]: 8.38
pKd [5, 9]: ≤ 4.11

STMPLVMAWR
pKd [2, 10]: 7.83
pKd [3, 10]: 7.82
pKd [4, 10]: 8.54
pKd [5, 10]: 8.94

SAGAGVLDK
pKd [1, 7]: 6.61
pKd [2, 7]: 6.50
pKd [3, 7]: 5.47
pKd [4, 7]: ≤ 4.11
pKd [5, 7]: ≤ 4.58

GVCGIRSTTR
pKd [5, 11]: 7.57

VFFTASLFLH
pKd [1, 12]: 4.98
pKd [2, 12]: 5.00
pKd [3, 12]: ≤ 4.64
pKd [4, 12]: 6.79
pKd [5, 12]: 6.50

FFTELENKK
pKd [1, 7]: ≤ 4.11
pKd [2, 7]: 5.21
pKd [3, 7]: 5.47
pKd [4, 7]: ≤ 4.51
pKd [5, 7]: ≤ 4.59

TIANSNIIK
pKd [1, 7]: 6.18
pKd [2, 7]: 7.43
pKd [3, 7]: 7.14
pKd [4, 7]: 4.96
pKd [5, 7]: 5.05

KMLTFDVFR
pKd [1, 7]: 7.08
pKd [2, 7]: 8.53
pKd [3, 7]: 7.11
pKd [4, 7]: 6.44
pKd [5, 7]: 8.40

MWQLMYFHR
pKd [4, 9]: 8.84
pKd [5, 9]: ≤ 4.61

ETCVYNMMGK
pKd [2, 8]: 5.93
pKd [3, 8]: 7.72

SMRYQSLIPR
pKd [1, 7]: 8.87
pKd [2, 7]: 9.00
pKd [3, 7]: 7.69
pKd [4, 7]: 9.21
pKd [5, 7]: 9.44

LSSIKSKSR
pKd [1, 7]: 5.51
pKd [2, 7]: 5.38
pKd [3, 7]: 6.21
pKd [4, 7]: 5.80
pKd [5, 7]: 6.12

PCPLPHRLDR
pKd [1, 13]: ≤ 4.15
pKd [2, 13]: ≤ 4.16
pKd [3, 13]: ≤ 4.51
pKd [4, 13]: ≤ 4.66
pKd [5, 13]: 5.53

KSTSPTRTWK
pKd [1, 14]: 7.95
pKd [2, 14]: 7.66
pKd [3, 14]: 6.33
pKd [4, 14]: 5.16
pKd [5, 14]: 7.00

DSEPISILDR
pKd [1, 7]: ≤ 4.15
pKd [2, 7]: ≤ 4.21
pKd [3, 7]: 6.29
pKd [4, 7]: 5.34
pKd [5, 7]: ≤ 4.28

LMCHATFTTR
pKd [4, 10]: 7.01
pKd [5, 10]: 7.90

RQFHQKLLK
pKd [1, 6]: 7.90
pKd [2, 6]: 7.88
pKd [3, 6]: ≤ 4.40
pKd [4, 6]: ≤ 4.11
pKd [5, 6]: 8.07

NWLARVGRER
pKd [4, 8]: 6.62

LFSTSAADIK
pKd [1, 7]: 4.71
pKd [2, 7]: 5.32
pKd [3, 7]: 7.24
pKd [4, 7]: ≤ 4.15
pKd [5, 7]: ≤ 4.15

IAEYIAGLK
pKd [1, 7]: 7.20
pKd [2, 7]: 6.83
pKd [3, 7]: 8.90
pKd [4, 7]: 5.88
pKd [5, 7]: 5.09

TSSTCMMCYK
pKd [1, 6]: 7.64
pKd [2, 6]: 8.93
pKd [3, 6]: 8.31
pKd [4, 6]: 6.36
pKd [5, 6]: 7.07

QCKDLCHMH
pKd [1, 15]: ≤ 4.14
pKd [2, 15]: ≤ 4.11
pKd [3, 15]: 5.82
pKd [4, 15]: 4.91
pKd [5, 15]: 6.28

AAYYFMKFR
pKd [1, 6]: 6.91
pKd [2, 6]: 7.33
pKd [3, 6]: 7.81
pKd [4, 6]: 6.93
pKd [5, 6]: 8.91

ASCDAIMTR
pKd [1, 6]: 4.71
pKd [2, 6]: 7.10
pKd [3, 6]: 5.84
pKd [4, 6]: 7.08
pKd [5, 6]: 7.09

DTSECPNERR
pKd [3, 10]: 6.91

RTAIHSLYGR
pKd [2, 13]: 6.85

SISNITTATR
pKd [3, 10]: 7.87
pKd [4, 10]: 7.97
pKd [5, 10]: 6.20

FFLSGRGLGK
pKd [1, 16]: 7.92

IFLRKLTSR
pKd [4, 10]: 6.97
pKd [5, 10]: 7.41

MLNIMNRRKR
pKd [5, 9]: ≤ 4.22

MISRMLINR
pKd [2, 8]: 6.59
pKd [3, 8]: 7.64
pKd [4, 8]: 8.01
pKd [5, 8]: 8.36

RVSTVSQLAK
pKd [1, 16]: 8.22
pKd [2, 16]: 7.39

YSMCTGKFK
pKd [2, 8]: 6.26

NMLNIMNRRK
pKd ([1]; source organism: Dengue virus 1 Singapore/S275/1990): 6.74

AINVLRGFR
pKd [5, 8]: 8.43

ATTFVTPMLR
pKd [2, 8]: 7.02
pKd [3, 8]: 7.79
pKd [5, 8]: 7.04

ENMEVEIWTR
pKd [4, 10]: 6.97

LAILFEEVMR
pKd [3, 11]: 7.53

ALFLEEMLR
pKd [1, 8]: 6.52

FFLRKLTSR
pKd [4, 11]: 7.33
pKd [5, 11]: 7.32

ESALNDTWK
pKd [3, 8]: 7.04
